Blank lines part the entries; values can stand above or below the binder they belong to.
B1: sFGFR3_Del4-D3 (receptor)
chain: ESLGTEQRVVGRAAEVPGPEPGQQEQLVFGSGDAVELSCPPPGGGPMGPTVWVKDGTGLVPSERVLVGPQRLQVLNASHEDSGAYSCRQRLTQRVLCHFSVRVTDAPSSGDDEDGEDEAEDTGVDTGAPYWTRPERMDKKLLAVPAANTVRFRCPAAGNPTPSISWLKNGREFRGEHRIGGIKLRHQQWSLVMESVVPSDRGNYTCVVENKFGSIRQTYTLDVLERSPHRPILQAGLPANQTAVLGSDVEFHCKVYSDAQPHIQWLKHVEVNGSKVGPDGTPYVTVLKTAGANTTDKELEVLSLHNVTFEDAGEYTCLAGNSIGFSHHSAWLVVLPVSLESNASMSSNT
notes: Secreted form without signal peptide; also called sFGFR3_Del4 with extended Ig-like C2-type domain 3

What was measured:
[1] = biological target: T1, human FGF9 (human, UniProt P31371 4-208); assay: SPR (Biacore T200), immobilised sFGFR3_Del4-D3, FGF as analyte, 2:1 (conformational change) model, ka1
[2] = biological target: T1, human FGF9; assay: SPR (Biacore T200), immobilised sFGFR3_Del4-D3, steady state
[3] = biological target: T1, human FGF9; assay: SPR (Biacore T200), immobilised sFGFR3_Del4-D3, kinetic fit, 2:1 model
[4] = biological target: T1, human FGF9; assay: SPR (Biacore T200), immobilised sFGFR3_Del4-D3, FGF as analyte, 2:1 (conformational change) model, kd1
[5] = biological target: B1; assay: SPR (Biacore T200), immobilised sFGFR3_Del4-D3, FGF as analyte, 2:1 (conformational change) model, ka1
[6] = biological target: B1; assay: SPR (Biacore T200), immobilised sFGFR3_Del4-D3, FGF as analyte, 2:1 (conformational change) model, kd2
[7] = biological target: B1; assay: SPR (Biacore T200), immobilised sFGFR3_Del4-D3, kinetic fit, 2:1 model
[8] = biological target: B1; assay: SPR (Biacore T200), immobilised sFGFR3_Del4-D3, FGF as analyte, 2:1 (conformational change) model, kd1
[9] = biological target: B1; assay: SPR (Biacore T200), immobilised sFGFR3_Del4-D3, steady state
[10] = biological target: B1; assay: SPR (Biacore T200), immobilised sFGFR3_Del4-D3, FGF as analyte, 1:1 model, ka1
[11] = biological target: B1; assay: SPR (Biacore T200), immobilised sFGFR3_Del4-D3, kinetic fit, 1:1 model

Binder: B1
kon [1]: 2.3e+06 M⁻¹ s⁻¹
Kd [2]: 3.6 nM
Kd [3]: 1.8 nM
koff [4]: 0.026 s⁻¹

kon [5]: 258 M⁻¹ s⁻¹
kd2 [6]: 0.0014 s⁻¹
Kd [7]: 28000 nM
koff [8]: 0.0055 s⁻¹
B2: human FGF21 (ligand)
chain: HPIPDSSPLLQFGGQVRQRYLYTDDAQQTEAHLEIREDGTVGGAADQSPESLLQLKALKPGVIQILGVKTSRFLCQRPDGALYGSLHFDPEACSFRELLLEDGYNVYQSEAHGLPLHLPGNKSPHRDPAPRGPARFLPLPGLPPALPEPPGILAPQPPDVGSSDPLSMVGPSQGRSPSYAS
notes: also called hFGF21; fibroblast growth factor 21

Kd [9]: 6.4 nM
kon [10]: 200000 M⁻¹ s⁻¹
Kd [11]: 4.5 nM
B3: human FGF18 (ligand)
chain: EENVDFRIHVENQTRARDDVSRKQLRLYQLYSRTSGKHIQVLGRRISARGEDGDKYAQLLVETDTFGSQVRIKGKETEFYLCMNRKGKLVGKPDGTSKECVFIEKVLENNYTALMSAKYSGWYVGFTKKGRPRKGPKTRENQQDVHFMKRYPKGQPELQKPFKYTTVTKRSRRIRPTHPA
notes: also called hFGF18; fibroblast growth factor 18

Source: US20210309718A1 (THERACHON, published 2021)
